{"source": "patent US20170052176A1", "key": {"[1]": {"target": "CD8 on human CD8+ cells (PBMC) (human)", "sequence (P01732 22-235)": "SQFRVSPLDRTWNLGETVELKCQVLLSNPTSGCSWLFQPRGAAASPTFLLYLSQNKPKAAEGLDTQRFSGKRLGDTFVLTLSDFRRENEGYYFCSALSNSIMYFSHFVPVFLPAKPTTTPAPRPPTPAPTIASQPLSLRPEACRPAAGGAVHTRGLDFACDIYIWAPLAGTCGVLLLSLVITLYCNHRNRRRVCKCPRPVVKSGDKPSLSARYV", "assay": "capture of PBMC pre-incubated with 1.5 ug anti-CD8 Fab-TST / multimerized soluble Strep-Tactin on Biotin-agarose; flow cytometry with CD8-PE and CD3-APC"}, "[2]": {"target": "CD8 on human CD8+ cells (PBMC) (human)", "assay": "capture of PBMC pre-incubated with 1.5 ug anti-CD8 Fab-TST / multimerized soluble Strep-Tactin on Biotin-agarose, elution with D-biotin; flow cytometry with CD8-PE and CD3-APC [continued]"}, "[3]": {"target": "CD8 on human CD8+ cells (PBMC) (human)", "assay": "capture of unlabelled PBMC on a pipette tip of Strep-Tactin-agarose loaded with 1.5 ug anti-CD8 Fab-TST, elution with D-biotin; flow cytometry with CD8-PE and CD3-APC; 7,6% before selection [continued]"}, "[4]": {"target": "CD8 on human CD8+ cells (PBMC) (human)", "assay": "capture of unlabelled PBMC on a pipette tip of Strep-Tactin-agarose loaded with 1.5 ug anti-CD8 Fab-TST; flow cytometry with CD8-PE and CD3-APC; 7,6% before selection [continued]"}}, "data": [{"substance": "anti-CD8 Fab-fragment carrying the Twin-Strep-Tag at the C-terminus of the heavy chain (catalogue number 6-8003, IBA GmbH)", "values": [{"measurement": "Q1-UL, % CD8 PE-positive cells in the wash through fraction", "setting": "[1]", "value": 0.9, "unit": "%"}, {"measurement": "Q1-UL, % CD8 PE-positive cells in the positive (biotin-eluted) fraction", "setting": "[2]", "value": 72.4, "unit": "%"}, {"measurement": "Q1-UL, % CD8 PE-positive cells in the positive (biotin-eluted) fraction", "setting": "[3]", "value": 58.7, "unit": "%"}, {"measurement": "Q1-UL, % CD8 PE-positive cells in the wash through fraction", "setting": "[4]", "value": 2.4, "unit": "%"}]}]}
